Data from PMC3133606.

Biological target: protective antigen, full-length wild type, nicked (nPA) and assembled into oligomers (Bacillus anthracis)
Test: electron microscopy

Question: Which fold less octamer with Δ47 LFN than with WT LFN does the source give for “protective antigen, full-length wild type, nicked (nPA) and assembled into oligomers (natural protein)” here?
Answer: 10 fold
